We go through six molecules from paper PMC8864165, “Functional Effects of ARV-1502 Analogs Against Bacterial Hsp70 and Implications for Antimicrobial Activity” (Frontiers in Chemistry, 2022).

Square brackets hold non-standard residues; d marks the D form. Ends that are not written are not given here. Cf = 5(6)-carboxyfluorescein label; Ac6c = NC1(C(=O)O)CCCCC1

Assay [1] has as its target T1, E. coli DnaK (Escherichia coli, UniProt P0A6Y8 1-638).
T1 construct: source: E. coli (DE3) Rosetta pLysS, purified (IMAC, TEV cleavage, second IMAC)
The experiment in a line: fluorescence polarisation; competition screen at one concentration: unlabeled peptide 5 µmol/L with 5 µmol/L E. coli DnaK, or 35 µmol/L with 16 µmol/L S. aureus DnaK, 90 min 28°C, then Cf-ARV-1502 (10 µL of 80 nmol/L), 90 min 28°C; duplicates; FP normalized to ARV-1502. Conditions: both partners purified. Background: In fluorescence polarisation assays a small probe gives low polarisation when free and higher when bound to something large.

Assay [2] concerns the target T2, S. aureus DnaK (Staphylococcus aureus, UniProt P99110 1-610).
T2 construct: source: E. coli (DE3) Rosetta pLysS, purified (IMAC, TEV cleavage, second IMAC)
The assay is described as above. The settings on record: both partners purified.

The target in assay [3] is T3, E. coli DnaK/DnaJ/GrpE-chaperone system (Escherichia coli, UniProt P0A6Y8 1-638; P08622 1-376; P09372 1-197).
T3 construct: also called full chaperone system (E. coli); source: E. coli (DE3) Rosetta pLysS, each purified; mixed (ratio 0.6:1.0:0.9) and pre-incubated for 30 min at room temperature
The experiment in a line: fluorescence polarisation; as the direct titration, but with the full chaperone system: DnaK, DnaJ and GrpE (ratio 0.6:1.0:0.9) pre-incubated for 30 min at room temperature. The settings on record: both partners purified.

The target in assay [4] is T4, S. aureus DnaK/DnaJ/GrpE-chaperone system (Staphylococcus aureus, UniProt P99110 1-610; P63971 1-379; P99086 1-208).
T4 construct: also called full chaperone system (S. aureus); source: E. coli (DE3) Rosetta pLysS, each purified; mixed (ratio 0.6:1.0:0.9) and pre-incubated for 30 min at room temperature
Described as above. The settings on record: both partners purified.

Assay [5] deals with T2, S. aureus DnaK. The experiment in a line: fluorescence polarisation; direct titration: protein serially diluted twofold in 23 steps, Cf-labeled peptide added (20 µL of 40 nmol/L to 20 µL); FP-buffer 20 mmol/L Tris-HCl, 150 mmol/L KCl, 5 mmol/L MgCl2, 1 mmol/L NaN3, 2 mmol/L DTT, pH 7.5; 2 h, 28°C, dark. Conditions: both partners purified.
Assay [6] has as its target T1, E. coli DnaK. The assay is described as above. The settings on record: both partners purified.
A further assay addresses T5, E. coli DnaJ (Escherichia coli, UniProt P08622 1-376).
T5 construct: source: E. coli (DE3) Rosetta pLysS, purified (IMAC, TEV cleavage, second IMAC)
T5 sequence: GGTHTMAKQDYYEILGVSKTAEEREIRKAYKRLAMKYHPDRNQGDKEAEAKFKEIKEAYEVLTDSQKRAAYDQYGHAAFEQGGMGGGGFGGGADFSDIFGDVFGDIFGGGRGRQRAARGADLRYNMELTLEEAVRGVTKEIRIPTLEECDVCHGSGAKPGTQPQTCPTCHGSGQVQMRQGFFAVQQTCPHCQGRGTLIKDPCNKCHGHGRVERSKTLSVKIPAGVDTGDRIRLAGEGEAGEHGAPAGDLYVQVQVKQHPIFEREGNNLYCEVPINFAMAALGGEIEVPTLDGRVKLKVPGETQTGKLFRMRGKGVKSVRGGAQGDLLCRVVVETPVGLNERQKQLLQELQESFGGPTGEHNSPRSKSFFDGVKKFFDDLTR
The description is as above. The settings on record: both partners purified.

The next assay concerns the target T6, E. coli GrpE (Escherichia coli, UniProt P09372 1-197).
T6 construct: also called co-chaperone GrpE; nucleotide exchange factor GrpE; source: E. coli (DE3) Rosetta pLysS, purified (IMAC, TEV cleavage, second IMAC)
T6 sequence: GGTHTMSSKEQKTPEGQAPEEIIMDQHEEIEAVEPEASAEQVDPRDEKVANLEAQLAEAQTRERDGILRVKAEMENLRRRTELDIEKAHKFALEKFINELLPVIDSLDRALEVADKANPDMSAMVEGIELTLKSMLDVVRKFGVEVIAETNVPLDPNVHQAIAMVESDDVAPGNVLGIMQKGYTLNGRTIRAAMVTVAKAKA
The assay is described as above. Conditions: both partners purified.

The target in another assay is T7, S. aureus GrpE (Staphylococcus aureus, UniProt P99086 1-208).
T7 construct: source: E. coli (DE3) Rosetta pLysS, purified (IMAC, TEV cleavage, second IMAC)
T7 sequence: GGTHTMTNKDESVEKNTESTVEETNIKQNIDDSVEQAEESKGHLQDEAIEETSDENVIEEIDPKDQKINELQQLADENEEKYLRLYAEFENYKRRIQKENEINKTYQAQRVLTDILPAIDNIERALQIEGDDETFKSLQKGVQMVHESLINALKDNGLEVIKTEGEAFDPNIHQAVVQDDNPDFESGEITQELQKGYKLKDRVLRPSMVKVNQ
The description is as above. Conditions: both partners purified.

Assay [7] addresses T1, E. coli DnaK. The experiment in a line: cell-based or functional assay.

B1: peptide 105 (peptide)
peptide: [Ac6c]RPFFPRPYLPRKRPPRPVR-NH2
notes: source: synthetic peptide, bought: ABclonal, Inc
As to B1, the binding result in the assay with E. coli DnaK [1] and with S. aureus DnaK [2] was “binds” in each case.

B2: Cf-peptide 102 (peptide)
peptide: Cf-RPFFPRPYLPLPRPPRPVR
notes: source: synthetic peptide, in-house (Fmoc/tBu chemistry on Rink amide resin), RP-HPLC purified
As to B2, the Kd (usually the constant that tells how readily two partners part at equilibrium) was found to be 0.6 µM in [3], 1.6 µM in [4] and 1.6 µM with S. aureus DnaK [5].

B3: peptide 103 (peptide)
peptide: [Ac6c]RPFFPRPYLPFPRPPRPVR-NH2
notes: as for B1
As to B3, the binding result in the assay with E. coli DnaK [1] and with S. aureus DnaK [2] was “binds” throughout.

B4: Cf-ARV-1502 (peptide)
peptide: Cf-RPDKPRPYLPRPRPPRPVR
notes: also called 5(6)-carboxyfluorescein-labeled ARV-1502; source: synthetic peptide, in-house (Fmoc/tBu chemistry on Rink amide resin), RP-HPLC purified
Turning to B4, the dissociation constant (Kd) in assay [3] is 3.1 µM; in assay [4], 30.2 µM; in the assay with E. coli DnaK [6] it was 0.2 µM; with S. aureus DnaK [5], 25.1 µM; with E. coli DnaJ, ~33.4 µM; with E. coli GrpE it was ~213 µM. For the same molecule, the dissociation constant Kd with S. aureus GrpE was ~138 µM.

B5: peptide 45 (peptide)
peptide: [Ac6c]RPKKPRPYLPRLRPPRPVR-NH2
modifications: N-terminus assumed
SMILES: CC(C)C[C@H](NC(=O)[C@H](CCCNC(=N)N)NC(=O)[C@@H]1CCCN1C(=O)[C@H](CC(C)C)NC(=O)[C@H](Cc1ccc(O)cc1)NC(=O)[C@@H]1CCCN1C(=O)[C@H](CCCNC(=N)N)NC(=O)[C@@H]1CCCN1C(=O)[C@H](CCCCN)NC(=O)[C@H](CCCCN)NC(=O)[C@@H]1CCCN1C(=O)[C@H](CCCNC(=N)N)NC(=O)C1(N)CCCCC1)C(=O)N[C@@H](CCCNC(=N)N)C(=O)N1CCC[C@H]1C(=O)N1CCC[C@H]1C(=O)N[C@@H](CCCNC(=N)N)C(=O)N1CCC[C@H]1C(=O)N[C@H](C(=O)N[C@@H](CCCNC(=N)N)C(N)=O)C(C)C
notes: as for B1
As to B5, the binding result in the assay with E. coli DnaK [1] and with S. aureus DnaK [2] was “binds” throughout.

B6: ARV-1502 (peptide)
peptide: [Ac6c]RPDKPRPYLPRPRPPRPVR-NH2
modifications: N-terminus assumed
SMILES: CC(C)C[C@H](NC(=O)[C@H](Cc1ccc(O)cc1)NC(=O)[C@@H]1CCCN1C(=O)[C@H](CCCNC(=N)N)NC(=O)[C@@H]1CCCN1C(=O)[C@H](CCCCN)NC(=O)[C@H](CC(=O)O)NC(=O)[C@@H]1CCCN1C(=O)[C@H](CCCNC(=N)N)NC(=O)C1(N)CCCCC1)C(=O)N1CCC[C@H]1C(=O)N[C@@H](CCCNC(=N)N)C(=O)N1CCC[C@H]1C(=O)N[C@@H](CCCNC(=N)N)C(=O)N1CCC[C@H]1C(=O)N1CCC[C@H]1C(=O)N[C@@H](CCCNC(=N)N)C(=O)N1CCC[C@H]1C(=O)N[C@H](C(=O)N[C@@H](CCCNC(=N)N)C(N)=O)C(C)C
Take B6: the “refolding activity of the E. coli DnaK/DnaJ/GrpE-chaperone system (denatured luciferase refolding assay) at ARV-1502 concentrations ≥50 µmol/L, relative to no peptide” value in the assay with E. coli DnaK [7] is ~60%.
